B1: soluble αVβ6 headpiece (complex)
chain 1: FNLDVDSPAEYSGPEGSYFGFAVDFFVPSASSRMFLLVGAPKANTTQPGIVEGGQVLKCDWSSTRRCQPIEFDATGNRDYAKDDPLEFKSHQWFGASVRSKQDKILACAPLYHWRTEMKQEREPVGTCFLQDGTKTVEYAPCRSQDIDADGQGFCQGGFSIDFTKADRVLLGGPGSFYWQGQLISDQVAEIVSKYDPNVYSIKYNNQLATRTAQAIFDDSYLGYSVAVGDFNGDGIDDFVSGVPRAARTLGMVYIYDGKNMSSLYNFTGEQMAAYFGFSVAATDINGDDYADVFIGAPLFMDRGSDGKLQEVGQVSVSLQRASGDFQTTKLNGFEVFARFGSAIAPLGDLDQDGFNDIAIAAPYGGEDKKGIVYIFNGRSTGLNAVPSQILEGQWAARSCPPSFGYSMKGATDIDKNGYPDLIVGAFGVDRAILYRARPVITVNAGLEVYPSILNQDNKTCSLPGTALKVSCFNVRFCLKADGKGVLPRKLNFQVELLLDKLKQKGAIRRALFLYSRSPSHSKNMTISRGGLMQCEELIAYLRDESEFRDKLTPITIFMEYRLDYRTAADTTGLQPILNQFTPANISRQAHILLDTGGLEVLFQ
chain 2: HVQGGCALGGAETCEDCLLIGPQCAWCAQENFTHPSGVGERCDTPANLLAKGCQLNFIENPVSQVEILKNKPLSVGRQKNSSDIVQIAPQSLILKLRPGGAQTLQVHVRQTEDYPVDLYYLMDLSASMDDDLNTIKELGSRLSKEMSKLTSNFRLGFGSFVEKPVSPFVKTTPEEIANPCSSIPYFCLPTFGFKHILPLTNDAERFNEIVKNQKISANIDTPEGGFDAIMQAAVCKEKIGWRNDSLHLLVFVSDADSHFGMDSKLAGIVCPNDGLCHLDSKNEYSMSTVLEYPTIGQLIDKLVQNNVLLIFAVTQEQVHLYENYAKLIPGATVGLLQKDSGNILQLIISAYEELRSEVELEVLGDTEGLNLSFTAICNNGTLFQHQKKCSHMKVGDTASFSVTVNIPHCERRSRHIIIKPVGLGDALELLVSPECNCDCQKEVEVNSSKCHHGNGSFQCGVCACHPGHMGPRCESRGLQTLFQ

No end group written: not given here. *: point of attachment. FITC = O=C1OC2(c3ccc(O)cc3Oc3cc(O)ccc32)c2ccc(NC(=S)*)cc21; Ahx = NCCCCCC(=O)O

Holding throughout (assay): fluorescence polarisation
In general terms: In fluorescence polarisation assays a small probe gives low polarisation when free and higher when bound to something large.

The test “soluble αVβ6 headpiece” deals with B1.
Test [1] deals with nonapeptide containing RGD from pro-TGF-β3.
The next test has as its target soluble αVβ3 headpiece (human, UniProt P06756 31-624; P05106 27-498, M400C | Q267C).

As a reminder, the Kd is the free concentration of one partner at which half of the binding sites on the other are occupied at equilibrium, for simple one-to-one binding. Low readings indicate a tighter complex, high ones a looser complex.

Chain of soluble αVβ3 headpiece (P05106 27-498 Q293C, one chain of several): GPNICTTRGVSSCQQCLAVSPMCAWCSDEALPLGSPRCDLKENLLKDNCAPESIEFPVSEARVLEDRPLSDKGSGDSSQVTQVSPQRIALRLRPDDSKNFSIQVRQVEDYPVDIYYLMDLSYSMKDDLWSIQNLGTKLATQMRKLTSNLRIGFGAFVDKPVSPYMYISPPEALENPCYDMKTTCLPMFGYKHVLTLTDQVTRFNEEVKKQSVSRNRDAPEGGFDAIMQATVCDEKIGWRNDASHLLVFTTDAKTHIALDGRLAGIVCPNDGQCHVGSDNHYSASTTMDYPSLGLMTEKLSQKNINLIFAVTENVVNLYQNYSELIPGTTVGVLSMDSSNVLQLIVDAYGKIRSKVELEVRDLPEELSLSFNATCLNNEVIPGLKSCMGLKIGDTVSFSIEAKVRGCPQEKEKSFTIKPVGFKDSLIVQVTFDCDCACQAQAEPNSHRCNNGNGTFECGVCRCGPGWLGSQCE

YTSGDQKTI [homologous peptide from pro-TGF-β2 (SGD in place of RGD)] gave a dissociation constant Kd in the test with soluble αVβ6 headpiece of 8.5 µM. This lies in the single-digit micromolar range.

Regarding B1, binding in test [1] was characterised by a dissociation constant (Kd) of 0.0085 µM.

As for {FITC-Ahx}-GRGDLGRL [FITC–pro-TGF-β3 peptide (FITC-aminohexanoic-GRGDLGRL)], the binding result with soluble αVβ3 headpiece was “binds”.
